Results from a protein production outcome set (Wang et al. 2014).

Assay: label from the status in PepcDB records
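Further: failed if final PepcDB status was selected cloned or expressed and not failed if soluble or beyond.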

| Sequence | protein production |
| --- | --- |
| MATRRLTDAFLLLRNNSIQNRQLLAEQVSSHITSSPLHSRSIAALADDRMALVSGISLDPEAAIGVTKRPPPKWVDGVDEIQYDVGRIKQKMKELASLHDKHLNRPTLDDSSEEEHAIEITTQEITQLFHRCQRAVQALPSRARACSEQEGRLLGNVVASLAQALQELSTSFRHAQSGYLKRMKNREERSQHFFDTSVPLMDDGDDNTLYHRGFTEDQLVLVEQNTLMVEEREREIRQIVQSISDLNEIFRDLGAMIVEQGTVLDRIDYNVEQSCIKTEDGLKQLHKAEQYQKKNRKMLVILILFVIIIVLIVVLVGVKSR | failed |
| MATRTQARGAVVELLYAFESGNEEIKKIASSMLEEKKIKNNQLAFALSLFNGVLEKINEIDALIEPHLKDWDFKRLGSMEKAILRLGAYEIGFTPTQNPIIINECIELGKLYAEPNTPKFLNAILDSLSKKLTQKPLN | failed |
| MATVTKAPKKQIQFADDMQEFTKFPTKTGRRSLSRSISQSSTDSYSSAASYTDSSDDEVSPREKQQTNSKGSSNFCVKNIKQAEFGRREIEIAEQDMSALISLRKRAQGEKPLAGAKIVGCTHITAQTAVLIETLCALGAQCRWSACNIYSTQNEVAAALAEAGVAVFAWKGESEDDFWWCIDRCVNMDGWQANMILDDGGDLTHWVYKKYPNVFKKIRGIVEESVTGVHRLYQLSKAGKLCVPAMNVNDSVTKQKFDNLYCCRESILDGLKRTTDVMFGGKQVVVCGYGEVGKGCCAALKALGAIVYITEIDPICALQACMDGFRVVKLNEVIRQVDVVITCTGNKNVVTREHLDRMKNSCIVCNMGHSNTEIDVTSLRTPELTWERVRSQVDHVIWPDGKRVVLLAEGRLLNLSCSTVPTFVLSITATTQALALIELYNAPEGRYKQDVYLLPKKMDEYVASLHLPSFDAHLTELTDDQAKYLGLNKNGPFKPNYYRY | failed |
| MAVAAAKYTTGFWINTIVIILIIAYLVYQLYLYWKRGKISTQLDDDEFRAGMRKAQVIDVREKKEFDAGHILGARNIPYSQMKNRTQELRSDLPVYLYDQGRTFSGRAAMLLSKKGFTQLYILKNGYQRWTGKTKKTKY | failed |
| MAVALLGNRDGQAFLATLFDLARRGHVTLRHDREDQAFGTTDVVRLETHPAPNDLSDFERRLVDTLGEYETLDDFWSDTRSFRSDVMSDVRGVLFERGWMENHTVRSGLLLGGALVALLGGFAAVVTGDSALRFYLLFGGMGVSLGGFIAAVRQYTWTEDGARRAMALRAYLDHEKSEIERLRETSPARAAERLVDALPWLLLHDEVSRAWIEETKEALDAADEVPELPDGFVSLVETEGSARAPVAAFLPVVTVMGAVESSSAGAVGAAGASGAAGAAGGGAGAAGAA | failed |
| MAVDMFIKIGDVKGESKDKTHAEEIDVLAWSWGMSQSGSMHMGGGGGAGKVNVQDLSFTKYIDKSTPNLMMACSSGKHYPQAKLTIRKAGGENQVEYLIITLKEVLVSSVSTGGSGGEDRLTENVTLNFAQVQVDYQPQKADGAKDGGPVKYGWNIRQNVQA | not failed |
| MAVEEVIEMQGLSLDPTSHRVMAGEEPLEMGPTEFKLLHFFMTHPERVYSREQLLNHVWGTNVYVEDRTVDVHIRRLRKALEPGGHDRMVQTVRGTGYRFSTRF | not failed |
| MAVKHASAPKAYINITGLGFAKLTKEGAELKYSDITKTRGLQKIGVETGGELKTAYADGGPIESGNTDGEGKISLQMHAFPKEIRKIVFNEDYDEDGVYEEKQGKQNNYVAVWFRQERRDGTFRTVLLPKVMFTNPKIDGETAEKDWDFSSEEVEGEALFPLVDNKKSVRKYIFDSANMTNHGGDGEKGEEAFLKKILGEEYTGNVTEDNEETLLEHHHHHH | not failed |
| MAVLGQLGFMIAFLSGGVAAGHFGLLTERRTDILTTLVFTVALPALIFRSTYDRPLQEIISPALLGGFWVIIALTITLGWLVHRRLESADRRSVSVVQSYHSNMGFLGLPLVAATMGSEATAVASVILGIGAVTHVPVTVFLLVRINGSDASLLSECRKLVTNPVLIALAAGITASVLSLSVPESLISALGPPAELALPVALLCIGATLDTDLPVSDLQKTVSVVGLKVLWMPALAWLVYSSLSMDTTALGAAVVMLGTPTAVSTYVYTTELGGDAAFASLNVFTSTVVSIGTLSLLVWLFT | failed |
| MAVNVYSTSVTSENLSRHDMLAWVNDSLHLNYTKIEQLCSGAAYCQFMDMLFPGCVHLRKVKFQAKLEHEYIHNFKVLQAAFKKMGVDKIIPVEKLVKGKFQDNFEFIQWFKKFFDANYDGKDYNPLLARQGQDVAPPPNPGDQIF | not failed |
| MAVPPVEMYSGSFWNRMRKPLPLRTQVIRFTVVFVIVSFILAVALQITHERMPDPKVTKPLPDLGFELLTKVPGMYVLADCCIGFLNILSVFTAFKLYLLHRHCVGSGEPELPCNIPGVSRFFLSVWLCKENCRIELRNIHTIAWIRFITSYALLLLFRSAVIVMTSLPAPDDLCQDPPKIENPVKNVILTVLTAGGGSIHCGDLMYSGHTVILTLHLMFHWIYGAMVHWSFRPVVTVVAIFGYYCIVASRFHYTDDVLVAIYLTIATFIAVGHNADGAPWQLQLFIRWWPCCGANSREVTEDSQPVMVAFKSEELDEMNGVLEGRQKKHGGVGDGESLMFKCGAYVVSHHHHHH | not failed |
| MAVPTELDGGSVKETAAEEESRVLAPGAAPFGNFPHYSRFHPPEQRLRLLPPELLRQLFPESPENGPILGLDVGCNSGDLSVALYKHFLSLPDGETCSDASREFRLLCCDIDPVLVKRAEKECPFPDALTFITLDFMNQRTRKVLLSSFLSQFGRSVFDIGFCMSITMWIHLNHGDHGLWEFLAHLSSLCHYLLVEPQPWKCYRAAARRLRKLGLHDFDHFHSLAIRGDMPNQIVQILTQDHGMELICCFGNTSWDRSLLLFRAKQTIETHPIPESLIEKGKEKNRLSFQKQ | failed |
| MAVRFASLGSGSDGNALLVESTDGTTSTRILLDCGFGIRETVRRLERLGCAPASLDAILVTHEHGDHIGSAYAFAAKYSVPVWTSHGTYRATASLRGADRAAVRFCRADDAFSIGDLRILPYTVPHDAREPLQFIFDDGARRLGVLTDAGMSTEYLCGHLTGLHAFVLECNHDREMLANSAYPWSLKQRIGGDFGHLANDIAAAILARVRHDGLHTVVAAHLSKQNNTPELAAAAIASALGVPAGDVPIADQEAGLGWQAV | failed |
| MAVSLPNSFLQISPCVPSLQLRKPVMAAVKGGKQSVRRSSNTVVQITCRKKELHPEFHEDAKVYCNGELVMTTGGTKKEYVVDVWSGNHPFYLGNRSALMVDADQVEKFRKRFAGLSEIMEIPVLKGEIIMPTKKSKGPKGKKK | failed |
| MAVSNDITFADYFYQWYEVNKLPHVSESTKRHYESAYKHIKDHFRHKLLKDIKRTEYQKFLNEYGLTHSYETIRKLNSYIRNAFDDAIHEGYVIKNPTYKAELHASVPAKTELEHHHHHH | not failed |
| MAVTLRLTNSLAFSSHPLTSSVLFRGSKSIGTITKIASTIRTVKMAAFAGSDSETTSSTSRVIDSHLHIWASPQEAETYPYFPGQEPTLTGDVNFLLKNMEEARVDGALIVQPINHKFDHSLVTRSRPF | failed |
| MAVYTDITEDELRNFLTQYDVGSLTSYKGIAEGVENSNFLLHTTKDPLILTLYEKRVEKNDLPFFLGLMQHLAAKGLSCPLPLPRKDGELLGELSGRPAALISFLEGMWLRKPEAKHCREVGKALAAMHLASEGFEIKRPNALSVDGWKVLWDKSEERADEVEKGLREEIRPEIDYLAAHWPKDLPAGVIHADLFQDNVFFLGDELSGLIDFYFACNDLLAYDVSICLNAWCFEKDGAYNVTKGKALLEGYQSVRPLSEAELEALPLLSRGSALRFFLTRLYDWLTTPAGALVVKKDPLEYLRKLRFHRTIANVAEYGLAGE | not failed |
| MAYDDMGFPVSVSGPARRVVSLVPSLTEAIAHTRREALVGATDWCTHPAGLDVARVRGTKNPDRAAIAALRPDLVIANKEENRELDVRMLRAAGIPVWVTVIQTVPQALDSLTRLFTEALCWPLPDWLVEARRLWSHPLPPVRARVAIPVWRDPWMVVGSATFTGDLARRLGLANVFADHPERYPKVALADIDRDDVDLVVLPDEPYAFTPQDGPEAFRCAPTVLVSGRLLTWYGPSLLHAKEGLAALVQ | failed |
| MAYDIERYLDIRGAGDPTYGPTGELAFTLGTTGTAQVWALGAPGAWPTQLTFHDERVQWASFSPTREELAYGMDTGGDEFTQLHRVSGDGSEDVQLTAFPDAKHDWGGWSHDGDRIAYTANRRDASRFDVYVQGRDEAGANADCVRVGDTFDLPSVVGWSPSDDRLLVVDTHSNFDQDVAVLDVDTGEITRATAGLDADTRFSWVAWAPDGGGVYVTTDHDADTRYLGLLDPETGAISRVADGGDWPIEAVVTAHDAGRLAYVRNRDGYSELTIADAAGTTLTEQPTPELPDGVIRGLSWGPDGDTLAVVVSAATENPNVFVVDVATGAATQWTNAATAGIPKSTFREPELVRYETFDGREIPALFTRPDGDGPHPVIVDFHGGPEGQRRPSFLSLRQYFVDNGYAVFEPNVRGSSGYGATYMNLDNVRNRMDAVADGKAGVEWLTARTDIDADRVVAYGGSYGGFMVLASLTEYPELWAAGVDIVGIANFVTFLENTGDWRREHRESEYGSLDADREFLESISPTNNADRIRAPLLVLHGANDPRVPVGEAERIVEQASAHVPVEKHVFDDEGHGFSKRANKQAAYRAVVDFLDDHA | failed |
| MAYDLWYWDGIPGRGEFVRLALEAGKIPYRDRAREPGEDMLDDMRRRRDTPPFAPPYLVADGMTIAQTANILLFLGVEHGLAPPDRAGRLWVNQLQLTIADLTAEAHDVHHPVAAGLYYEDQQDVALRRAADFRETRMPKFMQYFEQALDRPGGWLTDMGRWSYADLSLYHVVEGLLHAFPRRMRTLVHRYPRLMALHARVAELPELRGYLASDRRLPFGDGIFRHYPELDGA | not failed |
| MAYDNRAVVRKVLLITLLLNLFVMGLKAFVGYLTGSLSLLADALHSVTDSANNILGLFASSFSSPYPDREHPYGHHKFEAVGALGIAAFLGIACFEILQGAIERILKGGAPVRISPPELWLLLIVLGVNIFVAFYERNEGKRVGSQILIADATHTMSDVWVTISVIFGLIGVWLGYQWLDIVLAFPVALLVFWSGWSVLKENLPWLVDQMAIAPEAIHAIAVAVPGVINCHDIASRGVLGRQIFMEMHLIVDAPDVETAHRITEEVERRLEERFSPVRIIIHVEPPNYESEQISFETGSK | failed |
| MAYVKERIYESMFIIAPNVPEEERENLVERVKKIIEERVKGKIDKVERMGMRKFAYEIKKFNEGDYTVIYFRCDGQNLQELENFYRVTPEIIRWQTFRRFDLEKKERKAQREKAAAEATESSEGGSED | not failed |
| MCAFNGAALTALGISHSALLAHSPQGCEYLVNNAFASQECDYMETMTLCTKLCVDEIVHGGEDILARTIREVKDLPISALFVLSACGPEIVGDDIVGVCEALQPEVKFRLVPIESAGFRGSQYDGIDIAMDTILKKLVKDDVEKIPGSVCLEHHHHHH | failed |
| MCARPCRPTNLPTRFSMSNSDPSPTLEGNYDLLFRFAFWLFVGAISFSVAGMLLLRLVPSSMAIFGPIYTKLVKTPTWTFMTLLALLPLLMYGPTLGWKKISLIAAWGCIIGGASELIGTTGWLNVGGIALPFGEYEYTQWLGPKIAGHVPYFIPPSWFAMSIVSLDLARRVTTQRVGSLLLGTLFMVLWDVSLDPAMNQAFPFWEYGVDGVFFGMPLSNWAGWAGVTFVILLGYEYIGKGAPIQNEWAPWVYALNCIFPLSICLLRDVYLPALIGGLATLVPFLLLWRYNPDSLKRSVSLFRG | failed |
| MCCCVQFLMSFSSVPSAMPAIDPDALESQVAQRLDPHGSDGVQSALSGVVDLEALEERRYGEVLGAIDQRLTQSRYSLLSMVVAGIYFGLLVGLWLVDGSTWSRIALWLAPTLLVAVYGLYATHQTVRQIRHLSETRALLQILMNGPSADG | failed |
